Reference: the RNAGym collection of RNA variant scans (doi:10.7554/elife.80360)

B1: CPEB3 Ribozyme (parent)
chain: GGGGGCCACAGCAGAAGCGUUCACGUCGCGGCCCCUGUCAGAUUCUGGUGAAUCUGCGAAUUCUGCUGU

Variants of: B1
Assay: self-cleavage, relative activity (ratio to wild type); higher = more cleavage; co-transcriptional

Row | Variant | self-cleavage
1 | GUGGGCCACAGCAGAAGCGUUCACGUCGCGGCCCCUGUCAGAAUCUGGUGAAUCUGCGAAUUCUGCUGU | 0.118
2 | GUGGGCCACAGCAGAAGCGUUCACGUCGCGGCCCCUGUCAGACUCUGGUGAAUCUGCGAAUUCUGCUGU | 0.0688
3 | GUGGGCCACAGCAGAAGCGUUCACGUCGCGGCCCCUGUCAGAGUCUGGUGAAUCUGCGAAUUCUGCUGU | 0.0816
4 | GUGGGCCACAGCAGAAGCGUUCACGUCGCGGCCCCUGUCAGAUACUGGUGAAUCUGCGAAUUCUGCUGU | 0.0745
5 | GUGGGCCACAGCAGAAGCGUUCACGUCGCGGCCCCUGUCAGAUCCUGGUGAAUCUGCGAAUUCUGCUGU | 0.067
6 | GUGGGCCACAGCAGAAGCGUUCACGUCGCGGCCCCUGUCAGAUGCUGGUGAAUCUGCGAAUUCUGCUGU | 0.0788
7 | GUGGGCCACAGCAGAAGCGUUCACGUCGCGGCCCCUGUCAGAUUCAGGUGAAUCUGCGAAUUCUGCUGU | 0.0474
8 | GUGGGCCACAGCAGAAGCGUUCACGUCGCGGCCCCUGUCAGAUUCCGGUGAAUCUGCGAAUUCUGCUGU | 0.0853
9 | GUGGGCCACAGCAGAAGCGUUCACGUCGCGGCCCCUGUCAGAUUCUGGUGAAACUGCGAAUUCUGCUGU | 0.0959
10 | GUGGGCCACAGCAGAAGCGUUCACGUCGCGGCCCCUGUCAGAUUCUGGUGAACCUGCGAAUUCUGCUGU | 0.0669
11 | GUGGGCCACAGCAGAAGCGUUCACGUCGCGGCCCCUGUCAGAUUCUGGUGAAGCUGCGAAUUCUGCUGU | 0.0896
12 | GUGGGCCACAGCAGAAGCGUUCACGUCGCGGCCCCUGUCAGAUUCUGGUGAAUCAGCGAAUUCUGCUGU | 0.0595
13 | GUGGGCCACAGCAGAAGCGUUCACGUCGCGGCCCCUGUCAGAUUCUGGUGAAUCUGCGAACUCUGCUGU | 0.0727
14 | GUGGGCCACAGCAGAAGCGUUCACGUCGCGGCCCCUGUCAGAUUCUGGUGAAUCUGCGAAUGCUGCUGU | 0.0547
15 | GUGGGCCACAGCAGAAGCGUUCACGUCGCGGCCCCUGUCAGAUUCUGGUGAAUCUGCGAAUUCAGCUGU | 0.0856
16 | GUGGGCCACAGCAGAAGCGUUCACGUCGCGGCCCCUGUCAGAUUCUGGUGAAUCUGCGAAUUCUGCAGU | 0.127
17 | GUGGGCCACAGCAGAAGCGUUCACGUCGCGGCCCCUGUCAGAUUCUGGUGAAUCUGCGAAUUCUGCCGU | 0.107
18 | GUGGGCCACAGCAGAAGCGUUCACGUCGCGGCCCCUGUCAGAUUCUGGUGAAUCUGCGAAUUCUGCGGU | 0.116
19 | GUGGGCCACAGCAGAAGCGUUCACGUCGCGGCCCCUGUCAGAUUCUGGUGAAUCUGCGAAUUCUGCUGG | 0.109
20 | GGAGGCCACAGCAGAAGCGUUCACGUCGCGGCCCCUGUCAGAUUCUGGUGAAUCUGCGAAUUCUGCUGU | 0.693
21 | GGAGGCCUCAGCAGAAGCGUUCACGUCGCGGCCCCUGUCAGAUUCUGGUGAAUCUGCGAAUUCUGCUGU | 0.697
22 | GGAGGCCACCGCAGAAGCGUUCACGUCGCGGCCCCUGUCAGAUUCUGGUGAAUCUGCGAAUUCUGCUGU | 0.876
23 | GGAGGCCACGGCAGAAGCGUUCACGUCGCGGCCCCUGUCAGAUUCUGGUGAAUCUGCGAAUUCUGCUGU | 0.679
24 | GGAGGCCACUGCAGAAGCGUUCACGUCGCGGCCCCUGUCAGAUUCUGGUGAAUCUGCGAAUUCUGCUGU | 0.889
25 | GGAGGCCACAGCGGAAGCGUUCACGUCGCGGCCCCUGUCAGAUUCUGGUGAAUCUGCGAAUUCUGCUGU | 0.596
26 | GGAGGCCACAGCUGAAGCGUUCACGUCGCGGCCCCUGUCAGAUUCUGGUGAAUCUGCGAAUUCUGCUGU | 0.339

Row | Variant | self-cleavage
27 | GGAGGCCACAGCAGCAGCGUUCACGUCGCGGCCCCUGUCAGAUUCUGGUGAAUCUGCGAAUUCUGCUGU | 0.308
28 | GGAGGCCACAGCAGGAGCGUUCACGUCGCGGCCCCUGUCAGAUUCUGGUGAAUCUGCGAAUUCUGCUGU | 0.635
29 | GGAGGCCACAGCAGUAGCGUUCACGUCGCGGCCCCUGUCAGAUUCUGGUGAAUCUGCGAAUUCUGCUGU | 0.337
30 | GGAGGCCACAGCAGACGCGUUCACGUCGCGGCCCCUGUCAGAUUCUGGUGAAUCUGCGAAUUCUGCUGU | 0.0704
31 | GGAGGCCACAGCAGAUGCGUUCACGUCGCGGCCCCUGUCAGAUUCUGGUGAAUCUGCGAAUUCUGCUGU | 0.185
32 | GGAGGCCACAGCAGAAGCGUUCCCGUCGCGGCCCCUGUCAGAUUCUGGUGAAUCUGCGAAUUCUGCUGU | 0.525
33 | GGAGGCCACAGCAGAAGCGUUCGCGUCGCGGCCCCUGUCAGAUUCUGGUGAAUCUGCGAAUUCUGCUGU | 0.401
34 | GGAGGCCACAGCAGAAGCGUUCACGUCGCGGCCCCUGUCGGAUUCUGGUGAAUCUGCGAAUUCUGCUGU | 0.455
35 | GGAGGCCACAGCAGAAGCGUUCACGUCGCGGCCCCUGUCAGCUUCUGGUGAAUCUGCGAAUUCUGCUGU | 0.338
36 | GGAGGCCACAGCAGAAGCGUUCACGUCGCGGCCCCUGUCAGGUUCUGGUGAAUCUGCGAAUUCUGCUGU | 0.584
37 | GGAGGCCACAGCAGAAGCGUUCACGUCGCGGCCCCUGUCAGUUUCUGGUGAAUCUGCGAAUUCUGCUGU | 0.394
38 | GGAGGCCACAGCAGAAGCGUUCACGUCGCGGCCCCUGUCAGAUUCUGGUGCAUCUGCGAAUUCUGCUGU | 0.413
39 | GGAGGCCACAGCAGAAGCGUUCACGUCGCGGCCCCUGUCAGAUUCUGGUGUAUCUGCGAAUUCUGCUGU | 0.651
40 | GGAGGCCACAGCAGAAGCGUUCACGUCGCGGCCCCUGUCAGAUUCUGGUGAGUCUGCGAAUUCUGCUGU | 0.563
41 | GGAGGCCACAGCAGAAGCGUUCACGUCGCGGCCCCUGUCAGAUUCUGGUGAUUCUGCGAAUUCUGCUGU | 0.556
42 | GGAGGCCACAGCAGAAGCGUUCACGUCGCGGCCCCUGUCAGAUUCUGGUGAAUCUGCGGAUUCUGCUGU | 0.362
43 | GGAGGCCACAGCAGAAGCGUUCACGUCGCGGCCCCUGUCAGAUUCUGGUGAAUCUGCGUAUUCUGCUGU | 0.198
44 | GGAGGCCACAGCAGAAGCGUUCACGUCGCGGCCCCUGUCAGAUUCUGGUGAAUCUGCGAUUUCUGCUGU | 0.123
45 | GGAGGCUACAGCAGAAGCGUUCACGUCGCGGCCCCUGUCAGAUUCUGGUGAAUCUGCGAAUUCUGCUGU | 0.298
46 | GGAGGCCAAAGCAGAAGCGUUCACGUCGCGGCCCCUGUCAGAUUCUGGUGAAUCUGCGAAUUCUGCUGU | 0.895
47 | GGAGGCCAGAGCAGAAGCGUUCACGUCGCGGCCCCUGUCAGAUUCUGGUGAAUCUGCGAAUUCUGCUGU | 0.858
48 | GGAGGCCACAGAAGAAGCGUUCACGUCGCGGCCCCUGUCAGAUUCUGGUGAAUCUGCGAAUUCUGCUGU | 0.324
49 | GGAGGCCACAGGAGAAGCGUUCACGUCGCGGCCCCUGUCAGAUUCUGGUGAAUCUGCGAAUUCUGCUGU | 0.326
50 | GGAGGCCACAGUAGAAGCGUUCACGUCGCGGCCCCUGUCAGAUUCUGGUGAAUCUGCGAAUUCUGCUGU | 0.723
51 | GGAGGCCACAGCAGAAGUGUUCACGUCGCGGCCCCUGUCAGAUUCUGGUGAAUCUGCGAAUUCUGCUGU | 0.349
52 | GGAGGCCACAGCAGAAGCGUUAACGUCGCGGCCCCUGUCAGAUUCUGGUGAAUCUGCGAAUUCUGCUGU | 0.0741

Row | Variant | self-cleavage
53 | GGAGGCCACAGCAGAAGCGUUGACGUCGCGGCCCCUGUCAGAUUCUGGUGAAUCUGCGAAUUCUGCUGU | 0.0453
54 | GGAGGCCACAGCAGAAGCGUUCAAGUCGCGGCCCCUGUCAGAUUCUGGUGAAUCUGCGAAUUCUGCUGU | 0.153
55 | GGAGGCCACAGCAGAAGCGUUCAGGUCGCGGCCCCUGUCAGAUUCUGGUGAAUCUGCGAAUUCUGCUGU | 0.0795
56 | GGAGGCCACAGCAGAAGCGUUCAUGUCGCGGCCCCUGUCAGAUUCUGGUGAAUCUGCGAAUUCUGCUGU | 0.188
57 | GGAGGCCACAGCAGAAGCGUUCACGUCGAGGCCCCUGUCAGAUUCUGGUGAAUCUGCGAAUUCUGCUGU | 0.149
58 | GGAGGCCACAGCAGAAGCGUUCACGUCGGGGCCCCUGUCAGAUUCUGGUGAAUCUGCGAAUUCUGCUGU | 0.122
59 | GGAGGCCACAGCAGAAGCGUUCACGUCGUGGCCCCUGUCAGAUUCUGGUGAAUCUGCGAAUUCUGCUGU | 0.145
60 | GGAGGCCACAGCAGAAGCGUUCACGUCGCGGACCCUGUCAGAUUCUGGUGAAUCUGCGAAUUCUGCUGU | 0.191
61 | GGAGGCCACAGCAGAAGCGUUCACGUCGCGGGCCCUGUCAGAUUCUGGUGAAUCUGCGAAUUCUGCUGU | 0.176
62 | GGAGGCCACAGCAGAAGCGUUCACGUCGCGGUCCCUGUCAGAUUCUGGUGAAUCUGCGAAUUCUGCUGU | 0.302
63 | GGAGGCCACAGCAGAAGCGUUCACGUCGCGGCGCCUGUCAGAUUCUGGUGAAUCUGCGAAUUCUGCUGU | 0.153
64 | GGAGGCCACAGCAGAAGCGUUCACGUCGCGGCUCCUGUCAGAUUCUGGUGAAUCUGCGAAUUCUGCUGU | 0.231
65 | GGAGGCCACAGCAGAAGCGUUCACGUCGCGGCCACUGUCAGAUUCUGGUGAAUCUGCGAAUUCUGCUGU | 0.516
66 | GGAGGCCACAGCAGAAGCGUUCACGUCGCGGCCGCUGUCAGAUUCUGGUGAAUCUGCGAAUUCUGCUGU | 0.256
67 | GGAGGCCACAGCAGAAGCGUUCACGUCGCGGCCCGUGUCAGAUUCUGGUGAAUCUGCGAAUUCUGCUGU | 0.0971
68 | GGAGGCCACAGCAGAAGCGUUCACGUCGCGGCCCUUGUCAGAUUCUGGUGAAUCUGCGAAUUCUGCUGU | 0.215
69 | GGAGGCCACAGCAGAAGCGUUCACGUCGCGGCCCCUGUAAGAUUCUGGUGAAUCUGCGAAUUCUGCUGU | 0.328
70 | GGAGGCCACAGCAGAAGCGUUCACGUCGCGGCCCCUGUUAGAUUCUGGUGAAUCUGCGAAUUCUGCUGU | 0.273
71 | GGAGGCCACAGCAGAAGCGUUCACGUCGCGGCCCCUGUCAGAUUUUGGUGAAUCUGCGAAUUCUGCUGU | 0.634
72 | GGAGGCCACAGCAGAAGCGUUCACGUCGCGGCCCCUGUCAGAUUCUGGUGAAUAUGCGAAUUCUGCUGU | 0.243
73 | GGAGGCCACAGCAGAAGCGUUCACGUCGCGGCCCCUGUCAGAUUCUGGUGAAUGUGCGAAUUCUGCUGU | 0.25
74 | GGAGGCCACAGCAGAAGCGUUCACGUCGCGGCCCCUGUCAGAUUCUGGUGAAUUUGCGAAUUCUGCUGU | 0.602
75 | GGAGGCCACAGCAGAAGCGUUCACGUCGCGGCCCCUGUCAGAUUCUGGUGAAUCUGAGAAUUCUGCUGU | 0.11
76 | GGAGGCCACAGCAGAAGCGUUCACGUCGCGGCCCCUGUCAGAUUCUGGUGAAUCUGGGAAUUCUGCUGU | 0.175
77 | GGAGGCCACAGCAGAAGCGUUCACGUCGCGGCCCCUGUCAGAUUCUGGUGAAUCUGUGAAUUCUGCUGU | 0.0942
78 | GGAGGCCACAGCAGAAGCGUUCACGUCGCGGCCCCUGUCAGAUUCUGGUGAAUCUGCGAAUUAUGCUGU | 0.331
